In US20030100021A1:
Blank lines part the entries; values can stand above or below the substance they belong to.

Experiments:
Test in all cases: cell-based or functional assay
[1] = biological target: EpoR/LepR-F3-EpoR chimeric bait receptor (pSEL1-EpoR) (human; mouse) (UniProt P19235)
[2] = biological target: LepR-IRS1 bait receptor (pMET7 LepR-IRS1) (mouse; human) (UniProt P48356)
[3] = biological target: EpoR/LepR-F3-p53 chimeric bait receptor (pSEL1-p53) (human; mouse) (UniProt P19235)
[4] = biological target: βc/LepR-F3-Smad3 + GM-CSFRα/LepR-F3-ALK4CA heteromeric bait receptor (Example 8, transfection b) (mouse; human) (UniProt P32927)
[5] = biological target: βc/LepR-F3-ALK4CA + GM-CSFRα/LepR-F3-Smad3 heteromeric bait receptor (Example 8, transfection a) (mouse; human) (UniProt P32927)
[6] = biological target: LepR Y985/1077F mutant (pMET7 LepRY985/1077F) (mouse) (UniProt P48356)
LepR Y985/1077F mutant (pMET7 LepRY985/1077F) (mouse), sequence (P48356 other isoform, or with tags, fused parts or gaps mutant): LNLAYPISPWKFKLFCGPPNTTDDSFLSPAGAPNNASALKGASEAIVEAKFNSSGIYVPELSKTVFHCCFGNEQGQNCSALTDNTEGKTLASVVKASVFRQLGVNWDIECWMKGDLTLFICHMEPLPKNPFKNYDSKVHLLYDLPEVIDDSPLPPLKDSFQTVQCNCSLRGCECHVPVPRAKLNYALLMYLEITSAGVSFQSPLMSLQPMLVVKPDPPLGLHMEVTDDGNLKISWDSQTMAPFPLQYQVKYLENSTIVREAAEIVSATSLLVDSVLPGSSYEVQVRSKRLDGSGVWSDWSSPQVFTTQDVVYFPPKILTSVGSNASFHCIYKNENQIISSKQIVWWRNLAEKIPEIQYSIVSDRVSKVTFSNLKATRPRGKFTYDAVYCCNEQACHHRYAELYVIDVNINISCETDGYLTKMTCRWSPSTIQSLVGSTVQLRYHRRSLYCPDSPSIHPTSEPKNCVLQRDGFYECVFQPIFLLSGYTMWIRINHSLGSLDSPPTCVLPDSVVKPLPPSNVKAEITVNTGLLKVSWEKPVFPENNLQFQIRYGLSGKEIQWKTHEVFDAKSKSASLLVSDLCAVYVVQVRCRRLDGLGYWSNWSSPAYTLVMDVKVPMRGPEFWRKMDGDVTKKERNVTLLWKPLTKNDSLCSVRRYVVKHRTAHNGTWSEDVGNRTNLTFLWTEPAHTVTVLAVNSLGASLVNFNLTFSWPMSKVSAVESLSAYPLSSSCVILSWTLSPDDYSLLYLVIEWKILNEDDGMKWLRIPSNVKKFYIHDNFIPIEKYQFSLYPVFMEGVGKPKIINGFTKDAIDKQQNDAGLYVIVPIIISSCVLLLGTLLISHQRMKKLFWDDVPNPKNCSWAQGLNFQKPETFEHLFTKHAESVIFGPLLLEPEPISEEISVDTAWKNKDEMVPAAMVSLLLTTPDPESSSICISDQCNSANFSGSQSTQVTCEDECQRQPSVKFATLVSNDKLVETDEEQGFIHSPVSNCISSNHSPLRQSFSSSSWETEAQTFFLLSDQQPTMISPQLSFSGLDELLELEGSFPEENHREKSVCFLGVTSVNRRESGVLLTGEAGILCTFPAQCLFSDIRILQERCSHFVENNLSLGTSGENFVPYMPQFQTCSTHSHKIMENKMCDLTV

flag-gp130-SVT prey (pMG1-SVT; pMET7-flag-gp130-SVT), sequence (P40189 761-918, tags or fused parts left off): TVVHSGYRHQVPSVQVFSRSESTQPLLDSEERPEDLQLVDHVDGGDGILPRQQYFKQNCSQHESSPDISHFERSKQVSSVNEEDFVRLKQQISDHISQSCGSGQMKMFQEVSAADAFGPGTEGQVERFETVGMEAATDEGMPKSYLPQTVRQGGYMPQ
EpoR/LepR-F3-EpoR chimeric bait receptor (pSEL1-EpoR) (human; mouse), sequence (P19235 other isoform, or with tags, fused parts or gaps mutant limits assumed, form in doubt): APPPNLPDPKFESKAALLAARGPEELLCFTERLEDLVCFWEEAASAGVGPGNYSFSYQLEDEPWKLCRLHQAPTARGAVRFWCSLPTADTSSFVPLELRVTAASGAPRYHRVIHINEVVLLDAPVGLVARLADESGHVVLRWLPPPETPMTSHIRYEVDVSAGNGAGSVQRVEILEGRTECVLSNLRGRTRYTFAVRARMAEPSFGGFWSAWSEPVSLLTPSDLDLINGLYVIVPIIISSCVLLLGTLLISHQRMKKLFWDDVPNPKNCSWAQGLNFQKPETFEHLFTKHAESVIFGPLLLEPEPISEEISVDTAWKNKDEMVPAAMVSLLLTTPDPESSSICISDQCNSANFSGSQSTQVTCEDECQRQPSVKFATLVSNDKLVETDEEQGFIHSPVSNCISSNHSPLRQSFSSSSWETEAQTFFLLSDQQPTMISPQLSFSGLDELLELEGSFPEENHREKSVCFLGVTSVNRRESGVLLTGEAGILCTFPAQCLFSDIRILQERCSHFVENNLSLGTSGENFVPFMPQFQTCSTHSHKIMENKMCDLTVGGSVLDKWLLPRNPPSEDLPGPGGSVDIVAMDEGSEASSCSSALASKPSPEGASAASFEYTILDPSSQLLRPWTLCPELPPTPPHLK
EpoR/LepR-F3-p53 chimeric bait receptor (pSEL1-p53) (human; mouse), sequence (P19235 other isoform, or with tags, fused parts or gaps mutant limits assumed, form in doubt): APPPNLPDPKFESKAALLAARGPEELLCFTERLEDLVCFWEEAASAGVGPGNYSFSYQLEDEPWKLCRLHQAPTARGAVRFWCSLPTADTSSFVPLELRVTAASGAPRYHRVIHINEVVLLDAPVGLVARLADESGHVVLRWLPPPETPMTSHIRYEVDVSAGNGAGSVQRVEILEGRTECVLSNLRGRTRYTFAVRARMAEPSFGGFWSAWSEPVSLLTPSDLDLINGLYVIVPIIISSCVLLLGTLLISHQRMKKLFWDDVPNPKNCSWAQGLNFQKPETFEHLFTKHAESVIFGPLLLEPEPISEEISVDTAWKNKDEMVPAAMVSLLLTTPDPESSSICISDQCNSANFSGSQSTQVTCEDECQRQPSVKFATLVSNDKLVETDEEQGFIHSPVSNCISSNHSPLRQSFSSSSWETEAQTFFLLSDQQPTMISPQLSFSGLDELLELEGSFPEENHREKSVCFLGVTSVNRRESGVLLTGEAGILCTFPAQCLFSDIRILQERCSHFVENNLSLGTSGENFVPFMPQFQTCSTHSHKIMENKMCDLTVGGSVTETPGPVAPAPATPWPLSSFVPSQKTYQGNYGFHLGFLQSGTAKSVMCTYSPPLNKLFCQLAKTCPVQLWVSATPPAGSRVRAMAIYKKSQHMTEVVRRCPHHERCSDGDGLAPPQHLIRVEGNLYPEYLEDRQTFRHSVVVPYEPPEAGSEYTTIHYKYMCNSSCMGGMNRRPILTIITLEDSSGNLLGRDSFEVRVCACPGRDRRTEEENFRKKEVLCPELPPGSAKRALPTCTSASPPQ

Substance: flag-gp130-CIS prey (pMG1-CIS) (from UniProt P40189 761-918; Q62225 2-257)
luciferase activity (rPAP1-luci reporter), fold induction, erythropoietin [1]: 6.2 fold
luciferase activity (rPAP1-luci reporter), fold induction, erythropoietin plus forskolin [1]: 10.5 fold

Substance: flag-gp130-SVT prey (pMG1-SVT; pMET7-flag-gp130-SVT) (from UniProt P40189 761-918; P03070 261-708)
luciferase activity (rPAP1-luci reporter), fold induction, erythropoietin [3]: 9.4 fold
luciferase activity (rPAP1-luci reporter), fold induction, erythropoietin plus forskolin [3]: 14.6 fold

Substance: recombinant human leptin (R&D systems) (from UniProt P41159 22-167) (ligand)
luciferase activity (rPAP1-luci reporter), fold induction, leptin [6]: 33.2 fold
luciferase activity (rPAP1-luci reporter), fold induction, leptin co-stimulated with forskolin [6]: 37.6 fold

Second part, the substance after the results:

luciferase activity (rPAP1 promoter), fold induction, leptin co-stimulated with forskolin [2]: 2.5 fold
Substance: flag-gp130-GRB2S prey (pMG1-GRB2S) (from UniProt P40189 761-918; P62993 60-158)

luciferase activity (rPAP1 promoter), fold induction, leptin [2]: 5.2 fold
luciferase activity (rPAP1 promoter), fold induction, leptin co-stimulated with forskolin [2]: 12 fold
Substance: flag-gp130-VavS prey (pMG1-VavS) (from UniProt P40189 761-918; P15498 259-789)

luciferase activity (rPAP1 promoter), fold induction, GM-CSF [4]: 9 fold
luciferase activity (rPAP1 promoter), fold induction, GM-CSF co-stimulated with forskolin [4]: 71 fold
luciferase activity (rPAP1 promoter), fold induction, GM-CSF [5]: 3 fold
luciferase activity (rPAP1 promoter), fold induction, GM-CSF co-stimulated with forskolin [5]: 37 fold
Substance: pMG2-Smad4 prey (flag-gp130 with 6 STAT recruitment sites fused to human Smad4) (from UniProt Q13485 4-552)
